Reference: publication doi:10.1101/2022.08.30.505852 (bioRxiv, 2022)
Changes are numbered by the printed parent chain. Where “and” joins values, the source holds several entries; their conditions need not be identical. Equal entries are not always repeated. Values belong to the binder of their own block, whether it stands above or below them.

T1: βCAT_(CTERM), β-catenin residues 666-781 (human, UniProt P35222 666-781)
T1 sequence (looked up): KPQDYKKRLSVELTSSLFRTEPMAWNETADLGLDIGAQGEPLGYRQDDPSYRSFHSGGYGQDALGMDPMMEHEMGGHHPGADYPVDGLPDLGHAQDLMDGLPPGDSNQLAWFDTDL

T2: βCAT_(CTERM) D764A (human, UniProt P35222 666-781, D764A)
T2 sequence (looked up): T1 sequence (looked up) with D99A

T3: βCAT_(CTERM) F777A (human, UniProt P35222 666-781, F777A)
T3 sequence (looked up): T1 sequence (looked up) with F112A

T4: βCAT_(CTERM) D761A (human, UniProt P35222 666-781, D761A)
T4 sequence (looked up): T1 sequence (looked up) with D96A

T5: βCAT_(CTERM) D751A (human, UniProt P35222 666-781, D751A)
T5 sequence (looked up): T1 sequence (looked up) with D86A

B1: TAZ2 domain of p300 (residues 1723-1812 with four stabilizing mutations) (domain or fragment, UniProt Q09472 1723-1812, looked up)
chain: ATQSPGDSRRLSIQRAIQSLVHAAQCRNANCSLPSCQKMKRVVQHTKGCKRKTNGGCPICKQLIALAAYHAKHCQENKCPVPFCLNIKQK
B2: βCAT_(TAD2), β-catenin residues 730-781 (domain or fragment, human, UniProt P35222 730-781, looked up)
chain: GMDPMMEHEMGGHHPGADYPVDGLPDLGHAQDLMDGLPPGDSNQLAWFDTDL
B3: TAZ1 domain of CBP (residues 346-440) (domain or fragment)
chain: not shown

What was measured:
Test in all cases: ITC
[1] = target: B3
[2] = target: B2
[3] = target: T1, βCAT_(CTERM), β-catenin residues 666-781
[4] = target: T2, βCAT_(CTERM) D764A
[5] = target: T3, βCAT_(CTERM) F777A
[6] = target: T4, βCAT_(CTERM) D761A
[7] = target: T5, βCAT_(CTERM) D751A

Kd [1]: 2170 ± 70 nM
Binder: VDGLPDLGHAQDLMDGLPPGDSNQLAWFDTDL (peptide, UniProt P35222 750-781, looked up) [βCAT_(750-781), β-catenin residues 750-781]

Binder: B1
Kd2 (two-site fit) [2]: 1.18 ± 0.43 µM | Kd2 (two-site fit) [3]: 3.42 ± 0.2 µM

Binder: B2
Kd [1]: 380 ± 20 nM

Binder: B3
Kd [4]: 320 nM and 600 nM | Kd [5]: 550 nM and 320 nM | Kd [6]: 600 nM and 390 nM | Kd2 (two-site fit) [3]: 0.65 ± 0.22 µM | Kd [7]: 390 nM and 550 nM
